B1: human HspB2 / Myotonic Dystrophy Protein Kinase Binding Protein (MKBP) (natural protein, UniProt Q16082 1-182, looked up)
chain: MSGRSVPHAHPATAEYEFANPSRLGEQRFGEGLLPEEILTPTLYHGYYVRPRAAPAGEGSRAGASELRLSEGKFQAFLDVSHFTPDEVTVRTVDNLLEVSARHPQRLDRHGFVSREFCRTYVLPADVDPWRVRAALSHDGILNLEAPRGGRHLDTEVNEVYISLLPAPPDPEEEEEAAIVEP
notes: HspB2 (MKBP), human; The reverse primer carries the stop codon (TCA), so the C-terminal His tag of pET21a is probably not translated; also called MKBP/HspB2; source: E. coli BL21 DE3, purified (20% ammonium sulfate precipitation, Phenyl Sepharose)
B2: human HspB2 labelled at its sole cysteine (Cys118) with AIAS or LYI (natural protein, UniProt Q16082 1-182, looked up)
chain: B1 chain
modifications: cysteine at 118 covalently labelled with AIAS (4-acetamido-4'-((iodoacetyl)amino)stilbene-2,2'-disulfonic acid; donor copy) or with Lucifer Yellow Iodoacetamide (LYI; acceptor copy)
notes: HspB2 (MKBP), human; the same recombinant protein as m1, labelled at the sole cysteine residue (118th position); Two differently labelled copies of the same protein (AIAS donor, LYI acceptor) mixed in equimolar ratio for FRET; also called AIAS-labeled HspB2; LYI-labeled HspB2; source: E. coli BL21 DE3, purified, then labelled with AIAS or LYI and desalted (PD10)

Key:
[1] = target: the molecule itself; assay: AUC; sedimentation velocity, 0.125, 1 and 3 mg/ml HspB2 in TNE buffer (50 mM Tris HCl pH 7.4, 1 mM EDTA, 100 mM NaCl), 40,000 rpm, 20°C, interference optics, SEDFIT
[2] = target: the molecule itself; assay: FRET or BRET; subunit exchange: AIAS- and LYI-labelled HspB2 mixed in equimolar ratios in 20 mM HEPES pH 7.4, 100 mM NaCl, at 37°C or 20°C; excitation 332 nm

Protein	binding result [1]	binding result [2]
B1	binds	–
B2	–	binds

Source: paper PMC3260166, “HspB2/Myotonic Dystrophy Protein Kinase Binding Protein (MKBP) as a Novel Molecular Chaperone: Structural and Functional Aspects” (PLoS ONE, 2012)
